For one substance, Kd, koff and kon results are on record in publication PMC6391921.

A word on the Kd: it is the constant that tells how readily two partners part at equilibrium. Low values mean a tighter complex, high ones a looser complex. As usually defined, the koff is the rate constant with which the complex falls apart. The low end stands for a long-lived complex, the high end for a short-lived complex. By kon is commonly meant a measure of how fast the partners come together.

What all share (experiment): BLI
In general terms: Biolayer interferometry detects binding as a change in optical thickness at a sensor tip.

Experiment [1] concerns the target H7ssF_C, H7 stabilized HA stem ferritin nanoparticle, design C (influenza A virus A/Shanghai/2/2013 (H7N9) | not stated) (UniProt Q9ZLI1).
Experiment [2] deals with H7ssF_D, H7 stabilized HA stem ferritin nanoparticle, design D (influenza A virus A/Shanghai/2/2013 (H7N9) | not stated) (UniProt Q9ZLI1).
The target of experiment [3] is H7ssF_F, H7 stabilized HA stem ferritin nanoparticle, design F (influenza A virus A/Shanghai/2/2013 (H7N9) | not stated) (UniProt Q9ZLI1).
For experiment [4], the target named is H7ssF_I, H7 stabilized HA stem ferritin nanoparticle, design I (influenza A virus A/Shanghai/2/2013 (H7N9) | not stated) (UniProt Q9ZLI1).
Experiment [5] has as its target H7ssF_J, H7 stabilized HA stem ferritin nanoparticle, design J (influenza A virus A/Shanghai/2/2013 (H7N9) | not stated) (UniProt Q9ZLI1).
For experiment [6], the target named is H7ssF_E, H7 stabilized HA stem ferritin nanoparticle, design E (influenza A virus A/Shanghai/2/2013 (H7N9) | not stated) (UniProt Q9ZLI1).
In experiment [7] the target is H7ssF_B, H7 stabilized HA stem ferritin nanoparticle, design B (influenza A virus A/Shanghai/2/2013 (H7N9) | not stated) (UniProt Q9ZLI1).

As for CT149 Fab, the Kd in experiment [1] was 0.9 nM; in experiment [2] it was 9 nM; in experiment [3] it was 2.7 nM; in experiment [4] it was 7.2 nM; in experiment [5], 9.8 nM; in experiment [6], 8.2 nM. In experiment [7], this substance yielded a Kd of 7 nM. In addition, the koff in experiment [1] amounted to 0.00053 s⁻¹; in experiment [2], 0.0033 s⁻¹; in experiment [3] it was 0.0018 s⁻¹; in experiment [4], 0.0029 s⁻¹; in experiment [5] it was 0.0034 s⁻¹; in experiment [6] it was 0.003 s⁻¹. This substance registered a koff in experiment [7] of 0.003 s⁻¹. Also, the on-rate (kon) amounted to 600000 M⁻¹ s⁻¹ in experiment [1]; 370000 M⁻¹ s⁻¹ in experiment [2]; 670000 M⁻¹ s⁻¹ in experiment [3]; 410000 M⁻¹ s⁻¹ in experiment [4]; 350000 M⁻¹ s⁻¹ in experiment [5]; 370000 M⁻¹ s⁻¹ in experiment [6]. Besides, in experiment [7], the kon is 420000 M⁻¹ s⁻¹.
